Assay results taken from PMC2665295 (Biochemistry, 2008).
Read-outs that look alike come from different tables or passages of the source.

Tests used:
Test in all cases: ITC
[1] = target: T1, CaMN composed of amino acids 1–80 (UniProt P0DP23 2-81)
[2] = target: T2, CaMC composed of amino acids 76–148 (UniProt P0DP23 77-149)
[3] = target: T3, CaMN composed of amino acids 1–75 (UniProt P0DP23 2-76)
[4] = target: T1, CaMN composed of amino acids 1–80; remark: listed apart in the source
[5] = target: T2, CaMC composed of amino acids 76–148; remark: listed apart in the source
[6] = target: T3, CaMN composed of amino acids 1–75; remark: listed apart in the source
[7] = target: T1, CaMN composed of amino acids 1–80; remark: listed apart in the source
[8] = target: T2, CaMC composed of amino acids 76–148; remark: listed apart in the source
[9] = target: T3, CaMN composed of amino acids 1–75; remark: listed apart in the source
wild-type calmodulin = wild-type calmodulin (UniProt P0DP23 1-149)
[10] = target: T1, CaMN composed of amino acids 1–80; remark: listed apart in the source
[11] = target: T2, CaMC composed of amino acids 76–148; remark: listed apart in the source
[12] = target: T3, CaMN composed of amino acids 1–75; remark: listed apart in the source

Ac-KKFNARRKLKGAILTTMLATRN-NH2 [CaMKII(291–312) peptide]
dH1 (binding mode 1) [1]: 3.9 kcal/mol
dH2 (binding mode 2) [1]: 5.7 kcal/mol
dH1 (binding mode 1) [2]: -3.6 kcal/mol
dH2 (binding mode 2) [2]: 6.8 kcal/mol
Kd [3]: 280 nM
dH [3]: 1.9 kcal/mol
dH1 (binding mode 1) [4]: -0.3 kcal/mol
dH2 (binding mode 2) [4]: 2.4 kcal/mol
dH1 (binding mode 1) [5]: -7.7 kcal/mol
dH2 (binding mode 2) [5]: 7.6 kcal/mol
Kd [6]: 500 nM
dH [6]: -0.2 kcal/mol
dH1 (binding mode 1) [7]: -6.5 kcal/mol
dH2 (binding mode 2) [7]: -8.5 kcal/mol
dH1 (binding mode 1) [8]: -15.5 kcal/mol
dH2 (binding mode 2) [8]: 1.7 kcal/mol
Kd [9]: 710 nM
dH [9]: -5.1 kcal/mol
Kd (wild-type calmodulin): 0.07 pM
dH (wild-type calmodulin): -6.1 kcal/mol
dH1 (binding mode 1) [10]: -3.1 kcal/mol
dH2 (binding mode 2) [10]: -3.8 kcal/mol
dH1 (binding mode 1) [11]: -11.8 kcal/mol
dH2 (binding mode 2) [11]: 5.4 kcal/mol
Kd [12]: 360 nM
dH [12]: -2.5 kcal/mol
